± gives the standard deviation.
Assay: protein stability index of a GFP-peptide fusion (GPS, HEK-293T) (PSI 1-6); higher = more stable
Details: c terminus: a fixed tail appended
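Note: 24-mer peptide tiles fused after GFP, lentivirally expressed, FACS-sorted into six equal bins by GFP/DsRed ratio, decoded by Illumina sequencing, PSI is the read-weighted mean bin number.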

| Sequence | protein stability index (treatment: DMSO) | protein stability index (treatment: MLN4924 1 uM, 8 h) |
| --- | --- | --- |
| CHRHYHSMEVFTHYDLLNLNGTKV [LOXL2] | 2.21 ± 0.12 | 1.99 ± 0.25 |
| ARLLGALAARSGAAYGPGARGEDR [TSPAN10] | 3.89 ± 0.73 | 3.91 ± 0.18 |
| YFYHRETENEEQTQLTQNAVSCPY [KCNA4] | 3.88 ± 0.34 | 3.96 ± 0.17 |
| CEEWSFFHAYYYCFITLTTIGFGD [KCNK9] | 3.33 ± 0.098 | 2.96 ± 0.37 |
| IINDTYSEVKEELAGQKDELQLSD [PKD2L1] | 5.35 ± 0.23 | 5.28 ± 0.22 |
| CLETLPEFRDDRDLVMALSAGGHG [KCNA4] | 3.68 ± 0.26 | 3.51 ± 0.34 |
| THLILHRDLKTQNILLDKHRMVVK [NEK8] | 2.78 ± 0.11 | 2.83 ± 0.17 |
| TSPWSECTKTCGVGVRMRDVKCYQ [ADAMTSL2] | 2.81 ± 0.21 | 2.44 ± 0.38 |
| YVKAKKSIDKDEEFAGSSPQSSKS [FAN1] | 3.57 ± 0.67 | 4.16 ± 0.65 |
| ESSDDDSEEAPSTSGMGFHAPKIG [SDE2] | 5.51 ± 0.23 | 5.41 ± 0.19 |
| SSSGDLADLENEDIFPELDDILYH [DLC1] | 4.77 ± 0.24 | 4.76 ± 0.2 |
| SIYIHVYFTKSGFHPDPRQKALYR [CLPTM1] | 2.86 ± 0.6 | 2.76 ± 0.22 |
| IKRLVGSDQETLRIHERLVAGSLA [SLC25A25] | 2.74 ± 0.31 | 2.62 ± 0.18 |
| LEPAQRPPLSHIMAQPLCIRALLN [NEK8] | 3.35 ± 0.21 | 3.48 ± 0.16 |
| LLPMLDALRFTADVRSVLSRNLHQ [CTDNEP1] | 2.5 ± 0.37 | 2.1 ± 0.21 |
| GAFDSQSTVKDCATIFALSTMTSS [ATL3] | 3.01 ± 0.25 | 3.19 ± 0.27 |
| KGSSELGFPRVAPEDEVIVNQYVI [RNF208] | 2.8 ± 0.44 | 2.64 ± 0.36 |
| ELGKGAFSVVRRCMKIPTGQEYAA [CAMK2D] | 2.46 ± 0.21 | 2.2 ± 0.29 |

| Sequence | protein stability index (treatment: DMSO) | protein stability index (treatment: MLN4924 1 uM, 8 h) |
| --- | --- | --- |
| VTLMVAKWTGDFFNKGIYDIHVGL [CLCN6] | 2.46 ± 0.4 | 3.58 ± 0.26 |
| PLDILAQPLEASNPALEGLTQPLQ [DNAAF3] | 4.9 ± 0.28 | 4.78 ± 0.16 |
| RAYGFRGPGPQLRRGWRPSSREDS [CHGA] | 3.9 ± 0.4 | 4.07 ± 0.47 |
| VERKRLRNRLAATKCRKRKLERIA [JUNB] | 4.07 ± 0.42 | 4.2 ± 0.34 |
| LLMTADILAETGIRKTVKRLRKHQ [ELOA2] | 2.41 ± 0.31 | 2.84 ± 0.25 |
| HLGKEQSRRDDLEALGHMFMYFLR [CSNK1G1] | 2.61 ± 0.24 | 2.25 ± 0.26 |
| GSYGGFASAPTTPCQKSPNGVRVF [TRIM9] | 3.17 ± 0.18 | 3.25 ± 0.24 |
| VYHPSPEESRDPTLYANNVQRVMA [LPCAT4] | 3.6 ± 0.13 | 3.81 ± 0.12 |
| LPVSSPEPPPALPPAADAPVTQIG [TRIM55] | 5.23 ± 0.13 | 5.33 ± 0.12 |
| ELERAQHELLLGSLQQQHQADLEL [FBF1] | 4.15 ± 0.21 | 4.49 ± 0.28 |
| HSIALSTFASLIGPFGGFFASGFK [CDS1] | 2.57 ± 0.61 | 2.64 ± 0.69 |
| KARKTYERLVAQFPSSGRFWKLYI [CSTF3] | 2.57 ± 0.39 | 2.44 ± 0.35 |
| NKPAVKLLYNRSNNKYSYTSNSDD [KCTD10] | 4.1 ± 0.1 | 4.03 ± 0.31 |
| LQNEVRQLTEKLARVNENLARKIA [SSNA1] | 2.27 ± 0.29 | 2.2 ± 0.29 |
| STVTPVPGQEKGSALEGRADTTTG [EHMT1] | 5.51 ± 0.32 | 5.53 ± 0.24 |
| KSSLIWSYPAGSLTFPVRPFFYTG [TRIM43] | 2.19 ± 0.26 | 2.08 ± 0.18 |
| VLSDINLKKGESECQYYIDKLEYL [NET1] | 2.72 ± 0.18 | 2.94 ± 0.33 |
| DGKLQLLQKLLSGRSREELDELTG [FEM1A] | 3.24 ± 0.31 | 3.29 ± 0.26 |

— the supplement of paper PMC10567573
